From US20240377400A1, “METHODS FOR TREATING A SUBTYPE OF COLORECTAL CANCER” (Cornell University, priority 2021, published 2024)

Legend:
[1] = test system: MTO-sgPrkci/sgPrkcz liver metastases; experiment: Liver metastasis model, intrasplenic injection of sgPrkci/Prkcz MTOs; type: in vivo, mouse; conditions: 5 doses over 2.5 weeks
Excerpt: CRC predominantly metastasizes to the liver, which is the leading cause of death. Five-year overall survival for metastatic CRC patients is only 14.7%. Furthermore, patients with metastatic liver disease do worse than those without liver disease across different types of cancer and are totally refractory to ICB. Based on data that PEGPH20 remodels the tumor microenvironment and enables ICB in primary MSS CRC, the potential role of targeting HA in liver metastasis was investigated. To directly test therapeutic effects on liver metastatic disease, MTO-sgPrkci/sgPrkcz was inoculated in the portal circulation of wild-type C57BL/6J mice and mice were for two weeks and a half (5 doses) with a low clinically relevant dose of PEGPH20 ([…]) or in combination with anti-PDL1 or/and anti-CTLA4 (FIG. 22A).
Intrasplenic injection of sgPrkci/Prkcz MTOs in WT mice. Mice were treated twice a week with Veh or PEGPH20 0.0375 mg/kg and/or αPD-L1 (5 mg/kg) and/or aCTLA4 (100 ug/dose) for 2.5 weeks (n: sgPrkci/Prkcz MTOs Veh-treated=7, sgPrkciiPrkcz MTOs PEGPH20-treated=7, sgPrkci/Prkcz MTOs PEGPH20 and αPD-L1-treated=7, and sgPrkci/Prkcz MTOs PEGPH20 and aCTLA4-treated=6).

[2] = test system: MTO-sgPrkci/sgPrkcz tumors; experiment: Subcutaneous sgPrkci/Prkcz MTO tumors: PEGPH20 combined with anti-PD-L1; type: in vivo, mouse
Description: FIGS. 13B-13F illustrate Subcutaneous injection of sgPrkci/Prkcz MTOs in WT mice treated twice a week with PEGPH20 (0.0375 mg/kg) and αPD-L1 (5 mg/kg) for 4 weeks (n:Veh=14, PEGPH20-treated=15 and PEGPH20-treated with αPD-L1=15). Experimental design (B); tumor volume (C); tumor weight (D); IHC for HA, αSMA, CD8, FOXP3, S100a8, and CD19 of tumors (E) and quantification (F). Scale bars, 100 μm. Results are shown as mean±SEM *p<0.05, **p<0.01, ***p<0.001, ****p<0.0001.
For colonoscopy-guided orthotopic injection in the colon submucosa using mouse tumor organoids (MTOs), a 10 μl organoid suspension of equivalent to 40-50 MTOs admixed with 10% Matrigel (Corning) was directly injected into the colonic submucosa of 7 weeks old C57BL/6 mice. 4 weeks after implantation, tumors were collected and analyzed histologically. Orthotopic tumor sizes were measured by caliper after mice were sacrificed. For xenografts using MTOs, a 100 μl cell suspension of equivalent to 0.5×10^6 cells of sgPrkci/Prkcz or sgC MTOs admixed with 30% Matrigel (Corning) was directly injected subcutaneously into the right flank of 7 weeks old C57BL/6 mice. Tumors were allowed to grow for 14 days, and mice were randomly divided to receive vehicle, n=20, or PEGPH20 (0.0375 mg/kg, 2 days each week) via retro-orbital injection, n=18. Tumors were measured twice a week. Mice were euthanized three weeks after treatment and tumors were analyzed histologically. For the combination therapy of anti-PD-L1 (Clone B7-H1, Bioxcell) antibody and PEGPH20, mice were injected with a dose of 5 mg/kg (body mass) of anti-PD-L1 antibody in combination with PEGPH20 (n=15) twice a week for 4 weeks until they were sacrificed.

MTO-sgPrkci/sgPrkcz = experiment: PEGPH20 treatment in vitro of mouse tumor organoids, qPCR; type: cell-based; conditions: PEGPH20 2.5 μg/ml every other day for 6 days
Excerpt: To perform PRKCI and PRKCZ editing in PDOs, single-guide RNA sequences targeting PRKCI and PRKCZ (Table 3), were purchased from Synthego and transduced into PDOs with recombinant Streptococcus pyogenes Cas9 protein (Truecut Cas9 Protein v2, Thermo. To knock out Prkcz in mouse sgPrcki MTOs (Linares et al., 2021), single-guide RNA sequence targeting Prkcz (Table 3) was purchased from Synthego and transduced into sgPrcki MTOs as described above. PRKCI, PRKCZ, and Prkcz were knocked out using the Neon Transfection System 1 (Invitrogen) following the manufacturer's protocol and single clones were expanded and screened by protein immunoblotting. For the deletion of Prkci and Prkcz in normal organoids, 500 nM 4-OH-tamoxifen was added the second day after organoids were passaged. […]
Total RNA from cultured organoids was extracted using TRIZOL reagent (Invitrogen) and purified by the RNeasy Mini Kit (QIAGEN), followed by DNase treatment. After quantification using a Nanodrop 1000 spectrophotometer (Thermo Scientific), RNA was either processed for RNA-seq or reverse-transcribed using random primers and MultiScribe Reverse Transcriptase (Applied Biosystems). Gene expression was analyzed by amplifying 500 ng of the complementary DNA using the CFX96 Real Time PCR Detection System with SYBR Green Master Mix (BioRad) and primers described in Table 2. […]

B1: PEGPH20: a PEGylated version of human recombinant PH20 hyaluronidase; clinical-grade pegylated hyaluronidase (Halozyme Therapeutics) (protein, UniProt P38567 36-490, looked up)
Hyaluronidase PH-20: LNFRAPPVIPNVPFLWAWNAPSEFCLGKFDEPLDMSLFSFIGSPRINATGQGVTIFYVDRLGYYPYIDSITGVTVNGGIPQKISLQDHLDKAKKDITFYMPVDNLGMAVIDWEEWRPTWARNWKPKDVYKNRSIELVQQQNVQLSLTEATEKAKQEFEKAGKDFLVETIKLGKLLRPNHLWGYYLFPDCYNHHYKKPGYNGSCFNVEIKRNDDLSWLWNESTALYPSIYLNTQQSPVAATLYVRNRVREAIRVSKIPDAKSPLPVFAYTRIVFTDQVLKFLSQDELVYTFGETVALGASGIVIWGTLSIMRSMKSCLLLDNYMETILNPYIINVTLAAKMCSQVLCQEQGVCIRKNWNSSDYLHLNPDNFAIQLEKGGKFTVRGKPTLEDLEQFSEKFYCSCYSTLSCKEKADVKDTDAVDVCIADGVCIDAFLKPPMETEEPQIFYNASPSTLS
modifications: PEGylated
number of established liver tumors and volume of those tumors [1]: reducing
metastatic burden of MTO-sgPrkci/sgPrkcz ([1]; PEGPH20 0.0375 mg/kg, αPD-L1 5 mg/kg, aCTLA4 100 ug/dose): markedly decreased
CD8+ T and B cells in the tumor ([2]; IHC CD8, CD19): sufficient to bring
amount of immunosuppressive myeloid and Tregs ([2]; IHC S100a8, FOXP3): reduce
HA content and intensity of αSMA+ stromal staining ([2]; IHC, PEGPH20 0.0375 mg/kg, 4 weeks): reduced
Anxa10 expression (MTO-sgPrkci/sgPrkcz): reduced
Clu levels (MTO-sgPrkci/sgPrkcz): without changes
